Measurements taken from patent US12371456B2, “Proteins for the treatment of epithelial barrier function disorders” (Genevive, Inc., priority 2017, dated 2025).

Legend:
[1] = test system: HCT8 enterocyte and HT29-MTX goblet cell lines; assay: Oris Cell Migration assay (epithelial cell wound healing); assay type: cell-based, human; settings: 48 hours; SG-14 1 μg/ml, EGF 30 ng/ml, staurosporine 100 nM; FIG. 5
Excerpt: The 96 well Oris Cell Migration assay containing plugs preventing cell attachment in the center of each well was used according to the manufacturer's instructions (Platypus Technologies, Madison, WI). The migration assay plates were warmed to room temperature prior to use and plugs were removed from 100% confluence wells prior to cell addition. The HCT8 enterocyte and HT29-MTX goblet cell lines were used at a 9:1 ratio with a total of 5×10^4 total cells added per well (4.5×10^4 HCT8 cells and 0.5×10^4 HT29-MTX cells). Cells were incubated at 37° C.+5% CO2 for 24 hours. Plugs were then removed from all control and sample wells. Control wells included cells treated with the diluent vehicle as the blank, 30 ng/ml epidermal growth factor (EGF) as the positive control, and 100 nM staurosporine as the negative control, all diluted in cRPMI. Sample wells contained SG-14 protein at a concentration of 1 μg/ml diluted in cRPMI. 100% and 0% wells were cultured in cRPMI. […] The green fluorescent viability dye […] was added to all wells at a concentration of […] in PBS containing 0.9 mM CaCl2) and 0.5 mM MgCl2, incubated for 30 min at 37° C.+5% CO2, the dye was removed and cells were washed in PBS containing 0.9 mM CaCl2) and 0.5 mM MgCl2 and fluorescence was measured. […] Samples were normalized between 100% and 0% samples and values expressed as a percent growth.

muc2 = muc2 gene expression in epithelial cell monolayer (qRT-PCR); assay type: cell-based, human; settings: SG-14 1 pg/ml (40 nM) 6 hours prior to HK E. coli for 24 hours; p=0.87; FIG. 4
Experimental: Gene expression was measured in the epithelial cell monolayer from the apical chamber of the co-culture TEER assay described in Example 2. Total RNA was isolated from the epithelial cell monolayer, cDNA was synthesized. qRT-PCR was performed on cDNA generated from the HCT8 & HT29-MTX cells treated with SG-14 ([…]; 40 nM) for 6 hours prior to addition of HK E. coli for 24 hours. muc2 gene expression is graphed as mean fold change ±SEM. Statistical analysis was performed by a one-way ANOVA compared to HK E. coli and a Fishers LSD test was used for multiple comparisons.

TNF-α = TNF-α production by monocytes in co-culture TEER assay (Luminex); assay type: cell-based, human; settings: pre-incubated 6 hours prior to HK E. coli; FIG. 2A
Experimental: (§1) Production of the pro-inflammatory cytokines TNF-α and IL-23 by monocytes was measured in the tissue culture supernatant from the basolateral chamber of the co-culture TEER assay performed in Example 2. Following TEER readings, the supernatants were centrifuged at 10,000 g for 5 minutes at 4° C. to remove cell debris. Luminex analysis was performed according to the manufacturer's instructions (Magpix instrument and xPonent software version 4.2; Luminex Corporation (Austin, TX)). Luminex analysis was performed to determine the pg/ml concentration of TNF-α and IL-23 produced by monocytes. Luminex analysis utilizes a bead-based system for quantification of multiple cytokines from a single sample. Like an ELISA, Luminex beads are coated with a capture antibody, and incubation with samples allows the target to bind to the capture antibody. Beads are washed and incubated with a fluorescently labeled detection antibody for quantification of bound target. Cytometric analysis is used to differentiate bead populations, which are loaded with differential fluorescent dyes, and to quantify cytokine levels by measuring detection antibody signal. TNF-α production in untreated cells and cells pre-incubated with SG-14 for 6 hours prior to HK E. coli treatment were normalized to pg/ml concentrations elicited by HK E. coli which was set to 1.0. […]

[2] = test system: HCT8 enterocytes and HT29-MTX goblet cells (epithelial monolayer) co-cultured with U937 monocytes; assay: Co-culture trans-epithelial electrical resistance (TEER) assay, barrier disruption by heat killed E. coli; assay type: cell-based, human
Experimental: Assays were performed as described below in trans-well plates where co-cultures of multiple cell types were performed utilizing a permeable membrane to separate cells. In the apical (top) chamber, human colonic epithelial cells, consisting of a mixture of enterocytes and goblet cells, were cultured until cells obtained tight junction formation and barrier function capacity as assessed by measurement of trans-epithelial electrical resistance (TEER). In the basolateral chamber, monocytes were cultured separately. Epithelial cells were primed with inflammatory cytokines.
Cell culture. The HCT8 human enterocyte cell line (ATCC Cat. No. CCL-244) was maintained in RPMI-1640 medium supplemented with 10% fetal bovine serum, 100 IU/ml penicillin, 100 µg/ml streptomycin, 10 µg/ml gentamicin and 0.25 µg/ml amphotericin (cRPMI). HT29-MTX human goblet cells (Sigma-Aldrich (St. Louis, MO; Cat. No. 12040401) were maintained in DMEM medium with 10% fetal bovine serum, 100 IU/ml penicillin, 100 µg/ml streptomycin, 10 µg/ml gentamicin and 0.25 µg/ml amphotericin (cDMEM). Epithelial cells were passaged by trypsinization and were used between 5 and 15 passages following thawing from liquid nitrogen stocks. U937 monocytes (ATCC Cat. No. 700928) were maintained in cRPMI medium as a suspension culture, and split by dilution as needed to maintain cells between 5×10^5 and 2×10^6 cells/ml. U937 cells were used up to passage 18 following thawing from liquid nitrogen stocks.
Epithelial cell culture. A mixture of HCT8 enterocytes and HT29-MTX goblet cells were plated at a 9:1 ratio, respectively, in the apical chamber of the transwell plate as described previously (Berget et al., 2017, Int J Mol Sci, 18:1573; Beduneau et al., 2014, Eur J Pharm Biopharm, 87:290-298). […] Epithelial cells were trypsinized from culture flasks and viable cells determined by trypan blue counting. […]
Co-culture assay. […] Trans-epithelial electrical resistance (TEER) readings were measured after the IFN-γ treatment and were used as the pre-treatment TEER values. […]

IL-23 = IL-23 production by monocytes in co-culture TEER assay (Luminex); assay type: cell-based, human; settings: pre-incubated 6 hours prior to HK E. coli; p=0.80; FIG. 2B
Experimental: as §1

[3] = test system: DSS model of inflammatory bowel disease; assay: DSS model: 4 KDa-FITC dextran translocation across the epithelial barrier; assay type: in vivo, C57BL/6 mice; settings: 50 nmoles/kg i.p. b.i.d., 2.5% DSS 6 days; FIG. 6
Experimental: Eight-week old C57BL/6 mice were housed 5 animals were cage and given food and water ad libitum for 7 days. Following the 7-day acclimation period, treatments were initiated concurrently with addition of 2.5% DSS to the drinking water. […] The mice were treated with 2.5% dextran sodium sulfate (DSS) in their drinking water for 6 days. Treatments were continued with SG-14 or […]-GLP2 twice a day (b.i.d.) in the morning and evening (every 8 and 16 hr) with i.p. injections at 50 nmoles/kg. Fresh 2.5% DSS drinking water was prepared every 2 days. On day six, mice were fasted for four hours and then orally gavaged with 600 mg/kg 4 KDa dextran labeled with fluorescein isothiocyanate (FITC) [4 KDa-FITC]. One hour after the 4 KDa-FITC gavage mice were euthanized, blood was collected and FITC signal was measured in serum. […] Results are shown in FIG. 6, and are presented as mean SEM. The graph in FIG. 6 represents data pooled from the single experiment (n=10).

B1: SG-14: Eubacterium eligens protein comprising SEQ ID NO:3; tested form expressed in E. coli, with exogenous GPLG at N-terminus and PHRD at C-terminus (protein)
chain: GCARNSTSTTTASGGETTITSAITKEDTDVTHADDAENYRVSITGDFTVTSDTSDGVTQSGSVYTITKAGEYTVTGLLSEGQLIVDAGNENEVTIVLNGTSITCSSGSPIYVKNASEVKIKSEENSFNEVIDNRNEATEDSSDDAGNAAIYATCDLKLVGKGALVVTGNYNNGIQSKDDLSIKNVIVKVTAVNNAVKVNDAVDIESGNIIAISAKGDGIKTSNSSISNKGNQKGIVTITSGNIDIYAACDGIDASYGADISGDGNLNIYTDTYSEYSEEVTSSGSSSGTSSGRDSSANKSASANTVSYVATSDTIANAPSGFGGGNMGSGNAPDMSNGNAPNMNGSSDRNKTGGNRPGMPGDFNESGNSSGQSYSTKGIKAESEINISGFTINICSTDDGIHANSDSGVLETGEDGKGTIVINGGSITISSGDDGMHADKQLDVNDGYINVVTSYEGLEAMTINLNGGKIYVYATDDGINACTGDGKTSPIVNVTGGYIDVTTTSGDTDGIDSNGNYVQTGGFVLVKGGSSSGNVSGSIDVDGTVTITGGTCVALGGVCETPVNSANAYVLGSVSFSSGSYSLKDSSGNEVISFTVDGSFSNGWICSDTLTTGSSYTLYRGADSIADWTQE
modifications: N-terminal GPLG and C-terminal PHRD
Wound healing (percent growth) [1]: significant increase in growth
muc2 gene expression vs HK E. coli without pre-treatment (muc2): slight inhibition
TNF-α production normalized to HK E. coli (set to 1.0) (TNF-α): 0.77
TEER of epithelial cell barrier (percent of untreated) ([2]; SG-14 1 pg/ml (40 nM) added 1 hour (FIG. 1A; text also says 30 minutes) before HK E. coli, HK E. coli alone 70.0%): 72.2%
TEER of epithelial cell barrier (percent of untreated) ([2]; SG-14 1 pg/ml (40 nM) pre-incubated 6 hours before HK E. coli (FIG. 1B), without SG-14 71.4%): 78.7%
IL-23 production normalized to HK E. coli (set to 1.0) (IL-23): 1.1
4 KDa-FITC dextran in serum vs DSS mice treated with vehicle [3]: significant reduction
Magnitude of 4 KDa-FITC dextran translocation vs Gly2-GLP2 [3]: even lower than the positive control
